From patent US20240325555A1 (LANOVA MEDICINES, published 2024)
Like-named read-outs stand apart in the source and are kept apart here.

T1: human LIV-1 (human, UniProt Q13433 29-755)
T1 construct: whole, on cells; also called H-LIV1
T1 sequence (looked up): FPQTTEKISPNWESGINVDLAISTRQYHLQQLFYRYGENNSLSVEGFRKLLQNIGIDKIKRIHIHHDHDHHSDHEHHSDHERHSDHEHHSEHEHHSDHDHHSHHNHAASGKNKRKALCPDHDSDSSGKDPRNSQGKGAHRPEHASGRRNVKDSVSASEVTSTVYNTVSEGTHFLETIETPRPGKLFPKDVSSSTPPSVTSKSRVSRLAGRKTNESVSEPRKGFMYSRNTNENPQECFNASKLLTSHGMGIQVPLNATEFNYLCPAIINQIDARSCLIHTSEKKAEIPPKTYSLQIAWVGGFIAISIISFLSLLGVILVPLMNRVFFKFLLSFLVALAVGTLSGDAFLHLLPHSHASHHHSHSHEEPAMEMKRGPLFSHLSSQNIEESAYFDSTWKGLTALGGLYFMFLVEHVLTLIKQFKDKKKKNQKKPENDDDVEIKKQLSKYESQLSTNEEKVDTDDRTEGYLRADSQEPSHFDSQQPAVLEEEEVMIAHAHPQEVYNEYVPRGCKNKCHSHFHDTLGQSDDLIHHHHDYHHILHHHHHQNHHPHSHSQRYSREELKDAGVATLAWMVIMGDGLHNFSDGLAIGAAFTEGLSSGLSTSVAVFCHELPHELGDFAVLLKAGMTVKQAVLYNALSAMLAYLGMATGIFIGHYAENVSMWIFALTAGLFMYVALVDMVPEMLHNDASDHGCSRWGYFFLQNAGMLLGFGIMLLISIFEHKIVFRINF


Legend:
[1] = biological target: T1, human LIV-1; assay: FACS, HEK293/H_LIV-1 cells
Protocol: In this example, cell based binding of humanized antibodies (hu Abs) on human LIV-1-expressing cells were assessed using flow cytometry.
Cell based binding of hu-Abs on human LIV-1 expressing cells were assessed using flow cytometry. Briefly, the HEK293/H_LIV-1 cells were incubated with hu-Abs (from 100 nM, 6 folds dilution, 8 points). After incubation at 4° C. for 60 minutes, the cells were washed with FACS buffer twice, then stained with fluorescent conjugated secondary antibody at 4° C. for 30 minutes. After that the cells were washed twice and analyzed by flow cytometry.

[2] = biological target: T2, cynomolgus LIV-1 (cynomolgus, UniProt A0A2K5WH46 30-741); assay: FACS, HEK293/Cyno_LIV-1 cells
[3] = biological target: T1, human LIV-1; assay: cell-based or functional assay
[4] = biological target: T1, human LIV-1; assay: FACS, HEK293/H_LIV-1 cells; remark: listed apart in the source
Protocol: (§1) In this example, cell based binding of chimeric Abs on human and cyno LIV-1 over-expressing HEK 293 cells were assessed using flow cytometry.
(§2) Briefly, cells were incubated with chimeric Abs (from 100 nM, 5 folds dilution, 8 points). After incubation at 4° C. for 60 minutes, the cells were washed with 2% FBS/PBS buffer twice, then stained with fluorescent conjugated secondary antibody at 4° C. for 30 minutes. After that the cells were washed twice and resuspended in 80 μL of 2% FBS/PBS buffer. Fluorescent signal of binding was detected using Agilent. The EC50 was calculated using the GraphPad Software (LaJolla, CA).

[5] = biological target: T2, cynomolgus LIV-1; assay: FACS, HEK293/Cyno_LIV-1 cells; remark: listed apart in the source
Protocol: as §1, §2

EC50 [1] [nM] | Top (MFI) [1] [MFI] | EC50 [2] [nM] | Top (MFI) [2] [MFI] | ADCC reporter EC50 [3] [nM] | ADCC reporter Top (RFU) [3] [RFU] | EC50 [4] [nM] | Top (MFI) [4] [MFI] | EC50 [5] [nM] | Top (MFI) [5] [MFI] | Binder
0.19 | 45700 | 4 | 12100 |  |  |  |  |  |  | 5D6B10.Z8 (antibody, V domains shown) VH: QVQLVQSGGGVVQPGRSLRLSCTVSGFSLTTYGIHWVRQSPGKGLEWLGVIWTGGTTDYNAAFISRLTISKDNSKSTVYFQMNSLQAEDTAIYYCARGPSSYWGQGTLVTVSS VL: EIVMTQSPATLSVSPGERATVSCKASQNVDTNVVWYQQKPGQSPRALIHSASYRYSGVPDRFSGSGSGTDFTLTISSLQSEDFAVYFCQQYNNYPWTFGQGTKVEIK
0.42 | 63800 | 0.47 | 25800 |  |  |  |  |  |  | 5D6B10.Z10 (antibody, V domains shown) VH: QVQLQESGPGLVKPSGTLSLTCAVSGFSLTTYGIHWVRQSPGKGLEWLGVIWTGGTTDYNAAFISRLTISKDKSKNQVSLKLSSVTAADTAVYYCARGPSSYWGQGTLVTVSS VL: EIVMTQSPATLSVSPGERATLSCKASQNVDTNVVWYQQKPGQSPRALIYSASYRYSGVPARFSGSGSGTEFTLTISSLQSEDFAVYFCQQYNNYPWTFGQGTKVEIK
0.29 | 55300 | 11.6 | 18300 |  |  |  |  |  |  | 5D6B10.Z11 (antibody, V domains shown) VH: QVQLQESGPGLVKPSGTLSLTCAVSGFSLTTYGIHWVRQSPGKGLEWLGVIWTGGTTDYNAAFISRLTISKDKSKNQVSLKLSSVTAADTAVYYCARGPSSYWGQGTLVTVSS VL: EIVMTQSPATLSVSPGERATVSCKASQNVDTNVVWYQQKPGQSPRALIHSASYRYSGVPDRFSGSGSGTDFTLTISSLQSEDFAVYFCQQYNNYPWTFGQGTKVEIK
0.33 | 64300 | 0.5 | 26300 |  |  |  |  |  |  | 5D6B10.Z13 (antibody, V domains shown) VH: QVQLQQSGPGLVKPSGTLSLTCTVSGFSLTTYGIHWVRQSPGKGLEWLGVIWTGGTTDYNAAFISRLTISKDKSKNQVFFKMSSLTAADTAVYYCARGPSSYWGQGTLVTVSS VL: EIVMTQSPATLSVSPGERATLSCKASQNVDTNVVWYQQKPGQSPRALIYSASYRYSGVPARFSGSGSGTEFTLTISSLQSEDFAVYFCQQYNNYPWTFGQGTKVEIK
0.3 | 60300 | 0.46 | 24900 |  |  |  |  |  |  | 5D6B10.Z12 (antibody, V domains shown) VH: QVQLQESGPGLVKPSGTLSLTCAVSGFSLTTYGIHWVRQSPGKGLEWLGVIWTGGTTDYNAAFISRLTISKDKSKNQVSLKLSSVTAADTAVYYCARGPSSYWGQGTLVTVSS VL: DIVMTQSPATLSVSPGERVTVSCKASQNVDTNVVWYQQKPGQSPRALIHSASYRYSGVPDRFSGSGSGTDFTLTISSVQSEDFAVYFCQQYNNYPWTFGGGTKLEIK
0.24 | 52600 | 0.23 | 16500 |  |  |  |  |  |  | 5D6B10.Z9 (antibody, V domains shown) VH: QVQLVQSGGGVVQPGRSLRLSCTVSGFSLTTYGIHWVRQSPGKGLEWLGVIWTGGTTDYNAAFISRLTISKDNSKSTVYFQMNSLQAEDTAIYYCARGPSSYWGQGTLVTVSS VL: DIVMTQSPATLSVSPGERVTVSCKASQNVDTNVVWYQQKPGQSPRALIHSASYRYSGVPDRFSGSGSGTDFTLTISSVQSEDFAVYFCQQYNNYPWTFGGGTKLEIK
 |  |  |  | 25.3 | 47200 | 0.18 | 11500 | 0.17 | 6600 | 69B3D6 (antibody, V domains shown, Tested as chimeric antibody) VH: QVQLQQSGPELVKPGASVRISCKASGYTFTSYHMHWVKQRPGQGLEWIGWIYPGNVKNQSNEKFKGKATLTADKSSSTAYMQLSSLTSEDSAVYFCARSDITRAFFAYWGQGTLVTVSA VL: DVLMTQTPLSLPVSLGDQASISCRSSQSIVHSNGNTYLEWYLQKPGQSPKLLIYKVSNRFSGVPDRFSGSGSGTDFTLKISRVEAEDLGVYYCFQGSHVPYTFGGGTKLEIK
 |  |  |  | 0.2 | 95600 | 0.23 | 63000 | 0.21 | 35900 | 50H12B3 (antibody, V domains shown, Tested as chimeric antibody) VH: QVQLKQSGPGLVQPSQSLSITCTVSGFSLTSYGVHWVRQSPGKGLEWLGVIWTGGTTDYNAAFKSRLSISKDNSKSQVFFKMNSLQANDTAIYYCARGPSSYWGQGTLVTVSA VL: DIVMTQSQKFMSTSVGDRVSVTCKASQNVDTNVVWYQQKPGQSPKALIHSTSYRYSGVPDRFTGSGSGTDFTLTISNVQSEDLAEYFCQQYNNYPWTFGGGTKLEIK
 | 19400 | 0.2 | 8390 |  |  |  |  |  |  | 124H4D11.p2.z2 (antibody, V domains shown) VH: QVQLVQSGAEVVKPGASVKVSCKASGFNIKDYYMHWVRQAPGQGLEWIGWIDPENDDTEYDPKFQGRVTMTADTSTSTVYMELSSLRSEDTAVYYCAARYYAFDYWGQGTMVTVSS VL: DVLMTQSPSSLSASVGDRVTITCRSSQSIVHSNANTYLEWYLQKPGKSPKLLIYKVSNRFSGVPDRFSGSGSGTEFTLTISSVQPEDFAVYYCFQGSQVPPTFGQGTRLEIK
7.48 | 17000 |  | 9030 |  |  |  |  |  |  | 124H4D11.p2.z13 (antibody, V domains shown) VH: QVPLVQSGAEVVKPGASVKLSCKASGFNIKDYYMHWVKQAPGQGLEWIGWIDPENDDTEYDPKFQGRATMTADTSTSTAYLELSSLRSEDTAVYYCNARYYAFDYWGQGTTVTVSS VL: DVLMTQSPSSLSVSVGDRATISCRSSQSIVHSNANTYLEWYLQKPGKSPKLLIYKVSNRFSGVPDRFSGSGSGTEFTLTISSVQPEDFGVYYCFQGSQVPPTFGGGTRLEIK
 | 15800 | 3.8 | 7570 |  |  |  |  |  |  | 124H4D11.p2.z12 (antibody, V domains shown) VH: QVPLVQSGAEVVKPGASVKLSCKASGFNIKDYYMHWVKQAPGQGLEWIGWIDPENDDTEYDPKFQGRATMTADTSTSTAYLELSSLRSEDTAVYYCNARYYAFDYWGQGTTVTVSS VL: DVLMTQSPSSLSASVGDRVTITCRSSQSIVHSNANTYLEWYLQKPGKSPKLLIYKVSNRFSGVPDRFSGSGSGTEFTLTISSVQPEDFAVYYCFQGSQVPPTFGQGTRLEIK
37.2 | 15800 | 1.48 | 7750 |  |  |  |  |  |  | 124H4D11.p2.z7 (antibody, V domains shown) VH: QVPLVQSGAEVVKPGASVKVSCKASGFNIKDYYMHWVRQAPGQGLEWIGWIDPENDDTEYDPKFQGRATMTADTSTSTAYMELSSLRSEDTAVYYCNARYYAFDYWGQGTTVTVSS VL: DVLMTQSPSSLSASVGDRVTITCRSSQSIVHSNANTYLEWYLQKPGKSPKLLIYKVSNRFSGVPDRFSGSGSGTEFTLTISSVQPEDFAVYYCFQGSQVPPTFGQGTRLEIK
0.89 | 16800 | 0.29 | 8200 |  |  |  |  |  |  | 124H4D11.p2.z1 (antibody, V domains shown) VH: QVQLVQSGAEVVKPGASVKVSCKASGFNIKDYYMHWVRQAPGQGLEWIGWIDPENDDTEYDPKFQGRVTMTADTSTSTVYMELSSLRSEDTAVYYCAARYYAFDYWGQGTMVTVSS VL: DVQMTQSPSSLSASVGDRVTITCRSSQSIVHSNANTYLEWYLQKPGKSPKLLIYKVSNRFSGVPDRFSGSGSGTDFTLTISSLQPEDFATYYCFQGSQVPPTFGQGTRLEIK
0.12 | 19400 | 0.04 | 8300 |  |  |  |  |  |  | 124H4D11.p2.z3 (antibody, V domains shown) VH: QVQLVQSGAEVVKPGASVKVSCKASGFNIKDYYMHWVRQAPGQGLEWIGWIDPENDDTEYDPKFQGRVTMTADTSTSTVYMELSSLRSEDTAVYYCAARYYAFDYWGQGTMVTVSS VL: DVLMTQSPSSLSVSVGDRATISCRSSQSIVHSNANTYLEWYLQKPGKSPKLLIYKVSNRFSGVPDRFSGSGSGTEFTLTISSVQPEDFGVYYCFQGSQVPPTFGGGTRLEIK
